Measured values reported in US20260008852A1 (CRYSTAL BIOSCIENCE, published 2026).
Changes are numbered by the printed parent chain.

T1: his-tagged B7-H3 (UniProt Q5ZPR3-2 29-245, limits assumed)
T1 construct: also called CD276; not shown: His tag
T1 sequence (looked up): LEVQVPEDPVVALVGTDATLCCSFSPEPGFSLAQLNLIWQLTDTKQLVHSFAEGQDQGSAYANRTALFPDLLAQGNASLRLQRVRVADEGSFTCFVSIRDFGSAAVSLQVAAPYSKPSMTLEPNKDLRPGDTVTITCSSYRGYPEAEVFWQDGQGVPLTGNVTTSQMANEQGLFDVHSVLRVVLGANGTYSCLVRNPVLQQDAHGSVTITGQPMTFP

B1: 40511p1.1.D3 scFv-Fc (scFv, V domains shown)
VH: DVQLVESGGGVVRPGGSLRLSCAASGFTFRSYGMNWVRQAPGEGLEWVSRMSSGGGAYYADSVKGRFTISRDNSKNTLYLQMNSLRAEDTAVYYCARNSRDFFFDQWGLGTLVTVSS
VL: ETVLTQSPGTLSLSPGERATLSCRASQSVNSKLAWYQQKPGQAPRLLIYGASSRATGIPARFSGSGSGTEFTLTISSLQTEDFAVYYCQQYSDWPPLTFGGGTKVEIK
B2: 40511p1.1.A1 scFv-Fc (scFv, V domains shown)
VH: DVQLVESGGGVVRPGESLRLSCAASGFTFSNYAMNWVRQAPGEGLEWVSRINYKGYNITYYADSVKGRFTISRDNSKNTLYLQMNSLRAEDTAVYYCAKSGSNSNNFFDYWGLGTLVTVSS
VL: EIVLTQSPGTLSVSPGERATLSCRASQSVNSKLAWYQQRPGQAPRLLIYDASSRATGIPDRFSGSGSGTDFTLTISRLEPEDFAVYYCQQYKNWPPLTFGGGTKVEIK
notes: Tested as scFv-Fc supernatant
B3: 40511p1.2.A12 scFv-Fc (scFv, V domains shown)
VH: DVQLVESGGGVVRPGESLRLSCAASGFTFSSYAESWVRQAPGEGLEWVSIISGSGGNTFYADSVKGRFTISRDNSKNTLYLQMNSLRAEDTAVYYCARFAYGFFDYWGLGTLVTVSS
VL: B2 VL with S28T, N30G, R39K, A43P, R45S, S53T, R77S, E79Q, P80S, K92R
notes: Tested as scFv-Fc supernatant; also called 40511p1.2.Al2
B4: 40511p1.1.G1 scFv-Fc (scFv, V domains shown)
VH: B3 VH
VL: EIVLTQSPGTLSVSPGEGATLSCRASQTVGSKLAWYQQKPGQPPSLLIYDASTRATGIPDRFSGSGSGTDFTLTISSLQSEDFAVYYCQQYRNWPPLTFGGGTKVEIK
notes: Tested as scFv-Fc supernatant
B5: 40511p1.1.C4 scFv-Fc (scFv, V domains shown)
VH: DVQLVESGGGVVRPGESLRLSCAASGFTFSSYAMSWVRQAPGEGLEWVSRISGSGNSTDYAESVKGRFTISRDSSKNTLYLQMNSLRAEDTAVYYCAKHSTVSFFDYWGLGTLVTVSS
VL: EIVLTQSPGTLSLSPGERATLSCRASQSISSRYLAWYQQKPGQAPRLLIYGASRRATGIPARFSGSGSGTEFTLTISSLQSEDFAVYYCQQYGHWPPLTFGGGTKVEIK
B6: 40511p1.1.C3 scFv-Fc (scFv, V domains shown)
VH: DVQLVESGGGVVRPGGSLRLSCAASGFTFRIYGMTWVRQAPGEGLEWVSTISGSGNSTYYADSVKGRFTISRDNSKNTLYLQMNSLRAEDTAVYYCAKTWNNYRFFDYWGLGTLVTVSS
VL: EIVLTQSPGTLSLSPGERATLSCRASQPINSSYLAWYQQKPGQAPRLLIYAASSRATDIPDRFSGSGSGTDFTLTISSLQSEDFAVYYCQQYYDWPQFTFGGGTKVEIK
B7: 40511p1.1.D8 scFv-Fc (scFv, V domains shown)
VH: DVQLVESGGGVVRPGESLRLSCAASGFTFSSYAMSWVRQAPGEGLEWVSSISGSGGSTLYADSVKGRFTISRDSSNNSLYLQMNSLRAEDTAVYYCAKARNNFFDYWGLGTLVTVSS
VL: EIVLTQSPGTLTLSPGERATLSCRASRSILTSLAWYQQRPGQAPRLLIYGANSRATGIPDRFSGSGSGTEFTLTISSLQSEDFAVYYCQQYYDWLTITFGGGTKVEIK
B8: 40511p1.1.D6 scFv-Fc (scFv, V domains shown)
VH: DVQLVESGGGVVRPGESLTLSCAASGFTINSYAVSWVRQAPGEGLEWVSGISGSGVRYYADSVKGRFTISRDNSNNTLYLQMNSLRAEDTAVYYCARSNKVTWNNFFDYWGLGTLVTVSS
VL: EVVLTQSPGTLTLSPGERATLSCRASRSILTSLAWYQQKPGQAPRLLIYNTVTRATGIPARFSGSGSGTEFTLTINSLQSEDFAVYYCQQYYDWPPLTFGGGTKVEIK
notes: Tested as scFv-Fc supernatant
B9: 40511p1.1.G3 scFv-Fc (scFv, V domains shown)
VH: B8 VH with N73D
VL: B8 VL
notes: Tested as scFv-Fc supernatant

biological target: T1, his-tagged B7-H3; assay: SPR, Carterra LSA; binder captured by anti-human Fc, his-tagged B7-H3 injected
Protocol: Binding affinities of anti-B7-H3 antibodies to B7-H3 were measured by Surface Plasmon Resonance (SPR) on a Carterra LSA instrument. Goat anti-human Fc antibody was amine coupled to a HC30M chip. ScFv-Fc supernatants were diluted 30-fold with HBSTE and were captured by the anti-human Fc coupled HC30M chip. A 1:2 dilution series of his-tagged B7-H3, starting at 400 nM, was injected onto the chip for binding. Data was analyzed using the Carterra TM Kinetics software.

| Kd | koff | kon | Binder |
| --- | --- | --- | --- |
| 321 nM | 0.04 s⁻¹ | 109000 M⁻¹ s⁻¹ | B1 |
| 463 nM | 0.04 s⁻¹ | 93000 M⁻¹ s⁻¹ | B2 |
| 25.1 nM | 0.03 s⁻¹ | 1.32e+06 M⁻¹ s⁻¹ | B3 |
| 54.4 nM | 0.02 s⁻¹ | 458000 M⁻¹ s⁻¹ | B4 |
| 17.1 nM |  | 76900 M⁻¹ s⁻¹ | B5 |
| 47.7 nM | 0.02 s⁻¹ | 406000 M⁻¹ s⁻¹ | B6 |
| 71.8 nM | 0.02 s⁻¹ | 340000 M⁻¹ s⁻¹ | B7 |
| 0.325 nM |  | 669000 M⁻¹ s⁻¹ | B8 |
| 0.759 nM |  | 494000 M⁻¹ s⁻¹ | B9 |
